{"source": "paper PMC8079656", "about": "“The msaABCR Operon Regulates Persister Formation by Modulating Energy Metabolism in Staphylococcus aureus”", "binders": {"B1": {"name": "ccpE promoter probe (ccpE_EMSA) (dsDNA)", "DNA 1": "GTTAGTAATGAACTCATGAATGCTTGTGCCATGAAAGTTCAATAATTGAATAATTTATGGGG", "DNA 2": "CCCCATAAATTATTCAATTATTGAACTTTCATGGCACAAGCATTCATGAGTTCATTACTAAC"}, "B2": {"name": "gudB promoter probe (gudB_EMSA) (dsDNA)", "DNA 1": "GGAAATTCAATATGTTTGAAAGCGAATCATTAGGTAAAGAAGAGGCGAAAAGGATC", "DNA 2": "GATCCTTTTCGCCTCTTCTTTACCTAATGATTCGCTTTCAAACATATTGAATTTCC"}, "B3": {"name": "ndh2 ssDNA probe (ndh2_EMSA) (ssDNA)", "DNA": "GTCTTTTTTGTGAACATCACAGGTTTTTACATAATTTAAAAGACTTAAATAACAAAATGATGATAAACTAGTATA"}, "B4": {"name": "ndh2 dsDNA, same region (dsDNA)", "DNA 1": "GTCTTTTTTGTGAACATCACAGGTTTTTACATAATTTAAAAGACTTAAATAACAAAATGATGATAAACTAGTATA", "DNA 2": "TATACTAGTTTATCATCATTTTGTTATTTAAGTCTTTTAAATTATGTAAAAACCTGTGATGTTCACAAAAAAGAC"}}, "key": {"MsaB-His [1]": {"molecular_target": "T1, MsaB-His (Staphylococcus aureus USA300 LAC, UniProt Q2FH36 1-66)", "T1 sequence": "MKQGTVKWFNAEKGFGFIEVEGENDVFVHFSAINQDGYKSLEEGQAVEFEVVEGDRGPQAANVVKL", "experiment": "EMSA; 5 mM MgCl2, poly(dI-dC); shift reversed by 100-fold unlabeled probe", "details": "protein: recombinant; tags: 6xHis; label: biotin (5'); blunt"}, "MsaB-His [2]": {"molecular_target": "T1, MsaB-His", "experiment": "EMSA; 5 mM MgCl2, poly(dI-dC)", "details": "protein: recombinant, tags: 6xHis, blunt"}, "MsaB-His [3]": {"molecular_target": "T1, MsaB-His", "experiment": "EMSA; 5 mM MgCl2, poly(dI-dC); shift reduced by 100-fold unlabeled probe", "details": "protein: recombinant; tags: 6xHis; label: biotin (5')"}}}
{"binder": "B1", "values": [{"measurement": "binding result", "setting": "MsaB-His [1]", "result": "binds"}]}
{"binder": "B2", "values": [{"measurement": "binding result", "setting": "MsaB-His [2]; label: biotin (5')", "result": "no binding"}]}
{"binder": "B3", "values": [{"measurement": "binding result", "setting": "MsaB-His [3]", "result": "binds"}]}
{"binder": "B4", "values": [{"measurement": "binding result", "setting": "MsaB-His [2]", "result": "no binding"}]}
